This note sets out measurements from the nanobody polyreactivity screen of Harvey et al. (2022).

This data set can be described thus: yeast display, Sf9 membrane polyspecificity reagent, FACS + sequencing; frameworks hold sequencing errors. In a few lines:
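Nanobodies from a synthetic yeast display library (Saccharomyces cerevisiae BJ5465), induced 36–48 hours with galactose, were stained 1 hour at 4 °C with 10% biotinylated, detergent-solubilized Sf9 membrane reagent, enriched on streptavidin microbeads, then FACS-sorted. Anti-HA (expression) and streptavidin (reagent binding) fluorescence set low and high (top ~1%) gates. Polyreactivity labels come from the gate of origin. Genes were colony-PCR amplified, MiSeq 2 × 250 sequenced and filtered by CDR length.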
Turning to “QLQLVESGGGLVQAGGSLRLSCAASGRTFVSIALGWYRQAPGKERELFAGINWTDDSTYYADSVKGRFTISRDNAKHSVYLQMNCLKPEDTAVYYCAADQQDGLWDYQDWYDYWGPGTQVTVSS”, the “polyreactivity (PSR sort gate)” value is listed as “low polyreactivity”. Under “QGQLVESGGGLVQAGVSLRLSCAASGSTFRDYAMGWYRQAPGKERELVASITSGGSTNYADSVKGRFTISRDNAKNTVYLQMNSLKPEDTAVYYCGAESMPRWFVRYDYWGQGTQVTVSS” stands “low polyreactivity”; under “QVQLVESGGGLVQAGGSLRLSCAASGRIFRTYAMGWSRQAPGKERELVAAISGSGGRTYYADSVKGRFTISRDNAKNTVYLQMNSLKPEDTAVYYCAKYVSIVRYGSTTNYDYWGQGTQVTVSS”, “high polyreactivity”; under “QVQLVESGGGLVQAGGSLRLSCAASGSNFTTYSMGWYRQATGKERELVAASTSGSSTNYADSVKGRFTISRDNAKNTVYLQMNSLKPEDTAVYYCAVDREWPCYYYAMSKMYYWGQGTQVTVSS”, “low polyreactivity”. Under “QVQLVESGGGLVQAGGSLRLSCAASGIFRRYAMGWYRQAPGKERELVAAISYSGGSTEYADSVKGRFTISRDNAKNTVYLQMNSLKPEDTAVYYCAAVNRPRPRRSDYWGQGTQVTVSS” stands “high polyreactivity”; under “QVQLVESGGGLVQAGGSLRVSCAASGSTFASYAMGWSRQAAGKVWEFVAAICRSGGSTYYADSVKGRFTISRDNAKNTVSFQMNSREPEDPAVYYWAKSRYDYTIPEGGYWGQGTQATVSS”, “low polyreactivity”; under “QVQLVESGGGLVQAGGSLRLSCAASGYIFRWYAMGWYRQAPGKERELVAAISGRGGRTYYADSVKGRFTISRDNAKNTVYLQMNSLKPEDTAVYYCAAVPVVQSQPTYYYWGQGTQVTVSS”, “high polyreactivity”. For the sequence “QVQIVESGGGLVQAGGILRLSCASSRSIFTVNTMGWYRQEHGKETELVAAINSRGGTTYYADSVKGRFTISRDNAKNTVYLQMISLKPEDTAFYYCAARTRIGLLYDYWGQGTQVTVSS”, the “polyreactivity (PSR sort gate)” value is recorded as “high polyreactivity”. As for “QVQLVESCGGLVQAGGSHRLSCAASGRTFRYYAMGWYRQAPWKERELVAAIRRGGSTTYADSVKVRFTISRDNAKNTVYLQMNSLKPEDTAVYYCAARYPGTRGDGYWGQGTQVTVSS”, the entry is “high polyreactivity”; as for “QVQLVESGGGLLQAGGSLRLSCAASGRIFGDYGMGWYRQAPGKERELVAAITDRGGTTYYADSVKGRFTISRDNAKKTVYLQMNSMKPEDNAVYYCNARQSDIFDYDYWGQGTQVTVSS”, “low polyreactivity”; as for “QVQLVESGGGLVQAGGSLRLSCAASGRTFYSNAMGWYRQAPGKERELVAAISYNDGSTYYADSVKGRFTISRDNAKNTVYLQMNSLKPEDTAVYYCNADVGAWAWYTRYDYWGQGTQVTVSS”, “low polyreactivity”. Under “QVQLVESGGGLVQAGGSLRLSCAASGRIFYLYAMGWYRQAPGKDRELVAAITWSGGSTTYADSVKGRFTISRDTAKNTVYLQMNSLKPEDTAVYYSNADGWIFPSFSPMDYWGQGTQVTVSS” stands “low polyreactivity”; under “QDQLVESGGGLVQAGGSLRLSCAASGGIFFIYVMGWYRQAPGKERELVAAISGSGGTTYYADSVKGRFTISRDNAKNTVYLQMNSLKPEDTAVFYCNRVSDYTLYYWGQGTQVTVSS”, “low polyreactivity”; under “QVQLVESGGGLVQAGGRLRLSCAASGSIFGVYDMGWYRQAPGKERELVAVINSNGGSTYYADSVKGRFTISRDNAKNTVYLQMNSLKPEDTAVYYCAAERATVKFGYWGQGTQVTVSS”, “low polyreactivity”. As for “QVHLVESGGGLVQAGGSLRLSCAASGLIFVYNAMGWYRQAPGKERELVAGITSGGSTYYADSVKGRFTISRDNAKNTVYLQMNSLKPEDTAVSYCAAGYYDLYLWWGYDYWGQGTQVTVSS”, the entry is “high polyreactivity”; as for “QVQLVESGGGLVQAGGSLRLSCAASGRIFFFNTMGWYRQAPGKERELVARINRGGRTNYADSVKGRFTISRDNAKNTVYLQMNSLKPEDTAVYYCAADRTWYKLETTEYDYWGQGTQVTVSS”, “high polyreactivity”; as for “QVQLVESGGGLVQAGGSLRLSCAASGRTFHAYVMGWYRQAPGKERELVADISSGGDTYADSVKGRFTISRDNAKNTVYLQMNSLKPEDTAVYYCAVDLIQDESGYWGQGTQVTVSS”, “low polyreactivity”.

On to “QVQLVESGGGLVQAGGSLRLSCAASGRIFGIYAMGWYRQAPGKERELVAAISFIGGRTYYADSVKGRFTISRDNAKNTVYLQMNSLKPEDTAVYYCAARTVPSSRREYWGQGTQVTVSS”, for which the “polyreactivity (PSR sort gate)” value is reported as “high polyreactivity”. Under “QVQLEESGGGLVQAGGSLRISCAASGSIFPSYAMGWYRQAPGKERELVAAISSRGGSTYYADSVKGRFTISRDNAKNSVYLQMNSLKPEDTAVYYCNAVAGGVYVDKGYDYWGQGTQVTVSS” stands “high polyreactivity”; under “QVQLVESGGGLVQAGGSLRLSCAASGRIFRKYTMGWYRQAPGKERELVAAITGTGGSTYYADSVKGRFTISRDNAKNTVYLQMNSLKPEDTAVYYCAAVARFRYSDMYYWGQGTQVTVSS”, “high polyreactivity”; under “QVQLVESGGGLVQAGGSLRLSCAASGIIFYYYAMGWYSPAPGKERELVAAISSGGSTYYADSVKGRFTISRDNAKNTVYLQMNSLKPEDTAVYYCAADPLYTIDIEYSTYGDFDYWGQGTQVTVSS”, “low polyreactivity”. Turning to “QVQLVESAGGLVQAGGSLRLSCAASGSILVLNAMGWSRQAPGKERELVAAITSRGTRTYYADSVKGRFTISRDNAKNTVYLQLNSLNPEDTAVYYCAAKAGYRYGSLAYYKYDYWGQGTQVTLSS”, the “polyreactivity (PSR sort gate)” value is “high polyreactivity”. “QVQLVESGGGLVQAGGSLRLSCAASGSIFPAYTMGWYRPAPGKERELVAAITRRGGSTYYADSVKGRFTISRDNSKNTVYLQMNSLKPEDTAVYYCAAGGLYTPYDYWGQGTQVTVSS”: the “polyreactivity (PSR sort gate)” value is reported as “low polyreactivity”. As for “QVQLVESGGGLVQAGGSLRLSCAASGFTFFHYAMGWYRQAPGKERELVAAINTRGSRTYYADSVKGRFTISRDNAKNTVYLQMNSLKPEDNAVYYCAAEDYWYDFDYWGQGTQVTVSS”, the entry is “high polyreactivity”. With “QVQLVESGGGFVQAGGSLRLSSAASGSTLPGYAMGSYRQAPGKERELVAGISTRGGNTYYADSVKGRFTISRDNAKNTVYLPMNSLKPEDTAVYYCAAGIPRQAYKFYWGQGTQVTVSS”, the “polyreactivity (PSR sort gate)” value is given as “high polyreactivity”. As for “QVQLVESGGGLVQAGGSLRLSCAASGFIFDTYVMGWYRQAPGKERELVAAISRTGGRTYYADSVKGRFTISRDNAKNTVYLQMNSLKPEDTAVYYCAAKVYYPYLFTSYDYWGQGTQVTVSS”, the entry is “high polyreactivity”.

As to “QVQLVESGGGLVQAGGSLRLSCAASGSTFRVYAMGWYRQAPGNERELVAAISLSGGRTYYADSVKGRFTISRDNAKNTVYLQMNSLKPEDTAVYYCARRYRDYGRYGYWGQGTQVTVSS”, the “polyreactivity (PSR sort gate)” value was “high polyreactivity”. Consider “QDQLVESGGGLVQAGGSLRLSCAASGSTFSWYTMGWYRQAPGKERELVAAISKRGGSTYYADSVKGRFTISRDNAKNTVYLQMNSLKPEDTAVYYCNKDDERGKLYYWGQGTQVTVSS”, for which the “polyreactivity (PSR sort gate)” value is given as “high polyreactivity”. Regarding “QVQLVESGGGLVQAGGSLRLSCAASGSIFRKYTMGWYRQAPGKERELVAAISRIGGSTYYADSVKGRFTISRDNAKNTVYLQMNSLKPEDTAVYYCAKRGPRSYFQPWYDYWGQGTQVTVSS”, the “polyreactivity (PSR sort gate)” value is listed as “high polyreactivity”. Regarding “QVQLVESGGGLVEAGGSLRLSCAASGRIFLYKAMGWYRQAPVKERELVAAITASGGTTYYADSVKGRFTLSRDNAKNTVYLQMNSLKPEDTAVYYCNAYSYSGERYYWGQGTQVTVSS”, the “polyreactivity (PSR sort gate)” value is “high polyreactivity”.
